In assay [1] the target is T1, SARS-CoV-2 prototype (PT) spike receptor binding domain (RBD) (SARS-CoV-2, UniProt P0DTC2 319-541). The experiment in a line: SPR.
In assay [2] the target is T1, SARS-CoV-2 prototype (PT) spike …. Put plainly: SPR. This is another data set of the same source. In general terms: SPR reads the build-up and loss of mass on a sensor chip optically.

Like-named read-outs stand apart in the source and are kept apart here.

B1: raccoon dog ACE2 (rdACE2), peptidase domain (PD), wild type (receptor)
chain: QSTEDLVNTFLEKFNYEAEELSYQSSLASWNYNTNITDENLQKMNNAGAKWSAFYEEQSKLAKTYPLEEIQDSTVKRQLRALQHSGSSVLSADKNQRLNTILNSMSTIYSTGKACNPSNPQECLLLEPGLDDIMENSKDYNERLWAWEGWRSEVGKQLRPLYEEYVALKNEMARANNYEDYGDYWRGDYEEEWENGYNYSRNQLIDDVEHTFTQIMPLYQHLHAYVRTKLMDTYPSYISPTGCLPAHLLGDMWGRFWTNLYPLTVPFGQKPNIDVTNAMVNQSWDARKIFKEAEKFFVSVGLPNMTQGFWENSMLTEPSDSWKVVCHPTAWDLGRGDFRIKMCTKVTMDDFLTAHHEMGHIQYDMAYAAQPFLLRNGANEGFHEAVGEIMSLSAATPNHLKNIGLLPPSFFEDSETEINFLLKQALTIVGTLPFTYMLEKWRWMVFKGEIPKDQWMKTWWEMKRNIVGVVEPVPHDETYCDPASLFHVANDYSFIRYYTRTIYQFQFQEALCQIAKHEGPLHKCDISNSSEAGQKLLEMLKLGKSKPWTYALEIVVGAKNMDVRPLLNYFEPLFTWLKEQNRNSFVGWNTDWSPYADQS
Turning to B1, the values for the Kd in assay [1] and in assay [2] were 87.4 nM and 70.7 nM, respectively.

The values are drawn from paper PMC11620640 (2024).
